Series [1] addresses eIF4A•eIF4G_(682-1104)-Fl (UniProt Q04637). As to the kind of experiment: fluorescence polarisation; 20 nM eIF4G-Fl with 3 uM eIF4A, 40S subunit titrated; Binding Buffer (20 mM Tris acetate pH 7.5, 70 mM KCl, 2 mM free Mg2+, 0.1 mM spermidine, 1 mM DTT, 10% glycerol, 0.1 mg/ml BSA) with 0.5 mM ATP/MgCl2; 10 min ice, 5 min 30 °C, 10 min room temperature.
In series [2] the target is eIF4A•eIF4G_(711-1104)-Fl (UniProt Q04637). The description is as above.
Series [3] deals with eIF4A•eIF4G_(682-1104)-Fl (UniProt Q04637). As to the kind of experiment: fluorescence polarisation; as a3 with 200 nM eIF3 added (subsaturating, ~50% of eIF4G-Fl bound); 20 nM eIF4G-Fl, 3 uM eIF4A, 40S subunit titrated; 0.5 mM ATP/MgCl2.
The target in series [4] is eIF4A•eIF4G_(711-1104)-Fl (UniProt Q04637). The description is as above.
For another series, the system named is eIF4G721-1104 (human). As to the kind of experiment: fluorescence anisotropy. The note with it: text gives 4.60 ± 0.47 uM; uncapped; 20 mM Tris acetate pH 7.5, 70 mM KCl, 2 mM free Mg2+ (Mg acetate), 0.1 mM spermidine, 1 mM DTT, 10% glycerol, 0.1 mg/ml …; 20 nM RNA; 30 °C for 5 min.
A further series relates to eIF4G682-1104 (human). The series can be described thus: fluorescence anisotropy. To be noted: uncapped; 20 mM Tris acetate pH 7.5, 70 mM KCl, 2 mM free Mg2+ (Mg acetate), 0.1 mM spermidine, 1 mM DTT, 10% glycerol, 0.1 mg/ml BSA; 20 nM RNA; 30 °C for 5 min.
The target in series [5] is eIF4G_(721-1104)-Fl (S1041C) (human) (UniProt Q04637). The series can be described thus: fluorescence polarisation; eIF4G_(721-1104)-Fl (fluorescein at S1041C) titrated with eIF3 or eIF3-PR∗; carried out as described previously (ref. 7).
Series [6] shares this target. The description is as above. This is another data set of the same source.

Where two headings read alike, the source gives them in different places.

Take 40S ribosomal subunit (complex): the results for the dissociation constant (Kd) in series [1] and in series [2] were 129 nM and 563 nM, respectively. The KD with 200 nM eIF3 came to 76 nM in series [3] and 248 nM in series [4].

For CAA-42-FL (42-mer RNA-Fl), the values for the Kd in the series with eIF4G721-1104 (human) and with eIF4G682-1104 (human) were 4600 nM and 463 nM, respectively.

On to “eIF3 (intact multi-subunit complex) (from UniProt O15371 1-548; Q99613 1-913; O75822 1-258)”, for which the results for the dissociation constant Kd in series [5] and in series [6] were 81 nM and 124 nM, respectively.

In the case of “eIF3-PR∗ (eIF3 cleaved by HIV-1 PR and purified by size exclusion chromatography) (from UniProt O15371 1-114; Q99613 1-913) (complex)”, the equilibrium dissociation constant (Kd) in series [5] is 127 nM; in series [6] it was 75 nM.

The record behind these values is article PMC11063902.
